Reference: the supplement of paper PMC7877785
± gives the uncertainty stated by the source.

Experiment: self-splicing fitness, log relative to wild type (ln ratio); higher = more splicing; Tetrahymena group I intron in knt gene, E. coli kanamycin selection, DiMSum; sequences stand for … in CUCUCU…GGAGGGAAAAGUUAUCAGGCAUGCACCUGGUAGCUAGUCUUUAAACCAAUAGAUUGCAUCGGUUUAAAAGGCAAGACCGUCAAAUUGCGGGAAAGGGGUCAACAGCCGUUCAGUACCAAGUCUCAGGGGAAACUUUGAGAUGGCCUUGCAAAGGGUAUGGUAAUAAGCUGACGGACAUGGUCCUAACCACGCAGCCAAGUCCUAAGUCAACAGAUCUUCUGUUGAUAUGGAUGCAGUUCACAGACUAAAUGUCGGUCGGGGAAGAUGUAUUCUUCUCAUAAGAUAUAGUCGGACCUCUCCUUAAUGGGAGCUAGCGGAUGAAGUGAUGCAACACUGGAGCCGCUGGGAACUAAUUUGUAUGCGAAAGUAUAUUGAUUAGUUUUGGAGUACUCGUGGUCG
How it was run: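 Colonies from six replicate transformations of E. coli BL21(DE3) were pooled and amplicon-sequenced on an Illumina HiSeq 2500. The library placed an intron with all eight P1ex-region nucleotides randomised inside the knt kanamycin-resistance gene on pET-22b(+), and cells grew overnight at 37°C or 30°C on LB agar with or without 25 μg/mL kanamycin (plus 100 μg/mL carbenicillin, 50 μM IPTG, 0.2% rhamnose). Fitness is the DiMSum error-weighted combination of wild-type-normalised replicate fold changes, kanamycin versus none.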

Row | Sequence | self-splicing fitness (ln) (30 °C) | self-splicing fitness (ln) (37 °C)
1 | ACUCAGCAAUAUUACGAUCC | -3.06 ± 0.37 | 
2 | GCAAAGCAAUAUUACGCAGC | -0.0889 ± 0.15 | -2.46 ± 0.39
3 | UUCAAGCAAUAUUACGUAUC | -4.16 ± 0.24 | -1.85 ± 0.16
4 | GCGUAGCAAUAUUACGAGCA | -1.28 ± 0.082 | -0.574 ± 0.094
5 | UUCAAGCAAUAUUACGUUCA | -0.938 ± 0.077 | -0.12 ± 0.077
6 | CAAUAGCAAUAUUACGCUGG | -1.32 ± 0.13 | -0.734 ± 0.14
7 | UUGGAGCAAUAUUACGUAAA | -2.9 ± 0.29 | -0.99 ± 0.25
8 | UGCGAGCAAUAUUACGAGCA | -1.98 ± 0.18 | -2.37 ± 0.22
9 | GGCCAGCAAUAUUACGCGUU | -0.164 ± 0.09 | 0.0494 ± 0.12
10 | UCCCAGCAAUAUUACGACCU | -2.88 ± 0.27 | -1.69 ± 0.35
11 | CACAAGCAAUAUUACGUCGA | -2.62 ± 0.078 | -0.984 ± 0.073
12 | UAUCAGCAAUAUUACGCACA | -0.305 ± 0.087 | 0.32 ± 0.14
13 | UAGGAGCAAUAUUACGUUUC | -2.55 ± 0.29 | -2.68 ± 0.44
14 | CAUAAGCAAUAUUACGUGGC |  | -1.86 ± 0.25
15 | AGAGAGCAAUAUUACGUCCU | -2.25 ± 0.12 | -0.89 ± 0.13
16 | AUGGAGCAAUAUUACGAAUC | -3.53 ± 0.32 | -1.97 ± 0.36
17 | CACUAGCAAUAUUACGGCCC |  | -1.71 ± 0.46
18 | UACAAGCAAUAUUACGUACA | -1.56 ± 0.084 | -0.15 ± 0.086
19 | GGCGAGCAAUAUUACGUGGU | -4.31 ± 0.27 | -1.77 ± 0.16
20 | CUCGAGCAAUAUUACGAUGU |  | -2.06 ± 0.3
21 | ACUCAGCAAUAUUACGGCUU | -0.0445 ± 0.067 | 0.494 ± 0.086
22 | UCAGAGCAAUAUUACGCGCG | -2.44 ± 0.19 | -1.79 ± 0.18

Row | Sequence | self-splicing fitness (ln) (30 °C) | self-splicing fitness (ln) (37 °C)
23 | UCUUAGCAAUAUUACGGUGG | -1.18 ± 0.13 | -1.2 ± 0.16
24 | CUCAAGCAAUAUUACGAGAU | -3.89 ± 0.2 | -0.936 ± 0.12
25 | GACCAGCAAUAUUACGUCAG | -4.79 ± 0.32 | -2.85 ± 0.27
26 | UGUGAGCAAUAUUACGAGGG | -3.77 ± 0.3 | -3.54 ± 0.42
27 | GAGCAGCAAUAUUACGUCUU | -3.01 ± 0.19 | -1.23 ± 0.15
28 | CCGAAGCAAUAUUACGGGAC | -4.02 ± 0.26 | -3.3 ± 0.26
29 | ACGCAGCAAUAUUACGUGGU | -4.06 ± 0.12 | -2.58 ± 0.091
30 | CACCAGCAAUAUUACGCGUG | -3.74 ± 0.16 | -2.44 ± 0.13
31 | CGGUAGCAAUAUUACGCUCA | -0.279 ± 0.15 | -0.399 ± 0.21
32 | GUUAAGCAAUAUUACGGGUU | -3.44 ± 0.3 | -2.98 ± 0.23
33 | GGCCAGCAAUAUUACGCCAC | -4.58 ± 0.46 | -1.8 ± 0.49
34 | CAUCAGCAAUAUUACGAGAA | -2.12 ± 0.21 | -2.09 ± 0.18
35 | GCUAAGCAAUAUUACGACUC | 0.21 ± 0.098 | 0.379 ± 0.14
36 | UGCUAGCAAUAUUACGGCCC | -1.72 ± 0.23 | -0.878 ± 0.32
37 | UGUGAGCAAUAUUACGAACC | -2.06 ± 0.24 | -0.336 ± 0.27
38 | GGUGAGCAAUAUUACGUCCU | -0.834 ± 0.23 | -1.45 ± 0.22
39 | AACAAGCAAUAUUACGCUAG | -3.74 ± 0.19 | -1.98 ± 0.15
40 | UGGUAGCAAUAUUACGGCGG | -0.708 ± 0.082 | -0.0108 ± 0.1
41 | UGUUAGCAAUAUUACGAGAA | -2.27 ± 0.34 | -1.85 ± 0.38
42 | AGCUAGCAAUAUUACGCCCG |  | -0.486 ± 0.32
43 | AGCUAGCAAUAUUACGGGCG | -0.507 ± 0.098 | -0.799 ± 0.15
